Publication PMC7749421, “Functional expression of human prostaglandin E2 receptor 4 (EP4) in E. coli and characterization of the binding property of EP4 with Gα proteins” (Biochemistry and Biophysics Reports, 2020)

How the values were obtained:
[1] = molecular target: T1, human prostaglandin E2 receptor 4 (EP4) (Homo sapiens, UniProt P35408); experiment: biochemical
T1 construct: gene PTGER4

[2] = molecular target: Gαi1 (alpha subunit of Gi protein) (UniProt P63096); experiment: ELISA; Gα (10 μg/ml) immobilised in a high-binding 96-well plate, blocked with 5% skimmed milk; 5-1000 nM P9-EP4 in sarkosyl or in APG added; detected with anti-P9 antibody, HRP anti-mouse IgG and TMB; 25 °C
[3] = molecular target: Gαi2 (alpha subunit of Gi protein) (UniProt P04899); experiment: as above
[4] = molecular target: Gαi3 (alpha subunit of Gi protein) (UniProt P08754); experiment: as above
[5] = molecular target: Gαs1 (alpha subunit of Gs protein) (UniProt P63092); experiment: as above
Gαs1 (alpha subunit of Gs protein), sequence (P63092 whole entry): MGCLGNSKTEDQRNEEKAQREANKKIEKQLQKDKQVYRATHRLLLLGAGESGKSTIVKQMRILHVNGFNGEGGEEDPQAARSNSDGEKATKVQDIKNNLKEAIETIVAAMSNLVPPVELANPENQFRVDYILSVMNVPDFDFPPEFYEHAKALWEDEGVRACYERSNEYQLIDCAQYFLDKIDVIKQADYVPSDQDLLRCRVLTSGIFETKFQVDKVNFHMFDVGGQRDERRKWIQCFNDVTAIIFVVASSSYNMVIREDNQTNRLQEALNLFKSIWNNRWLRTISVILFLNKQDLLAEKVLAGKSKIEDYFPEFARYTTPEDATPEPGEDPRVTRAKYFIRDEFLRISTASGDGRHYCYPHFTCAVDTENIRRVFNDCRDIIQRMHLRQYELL

P9-EP4 (human prostaglandin E2 receptor 4, amino acids 1-354, fused to the C-terminus of the P9 envelope protein of phage phi6, with a C-terminal His6 tag), sequence (P35408 1-354 limits assumed): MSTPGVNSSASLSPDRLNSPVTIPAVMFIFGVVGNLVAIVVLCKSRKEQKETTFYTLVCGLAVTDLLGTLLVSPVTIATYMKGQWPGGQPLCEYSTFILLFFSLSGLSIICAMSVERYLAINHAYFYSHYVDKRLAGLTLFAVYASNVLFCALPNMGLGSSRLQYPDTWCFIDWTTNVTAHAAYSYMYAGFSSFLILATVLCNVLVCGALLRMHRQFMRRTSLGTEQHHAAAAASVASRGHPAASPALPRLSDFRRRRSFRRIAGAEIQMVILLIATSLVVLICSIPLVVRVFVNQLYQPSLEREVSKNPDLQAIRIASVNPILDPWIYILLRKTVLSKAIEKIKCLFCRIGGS
Gαi2 (alpha subunit of Gi protein), sequence (P04899 whole entry): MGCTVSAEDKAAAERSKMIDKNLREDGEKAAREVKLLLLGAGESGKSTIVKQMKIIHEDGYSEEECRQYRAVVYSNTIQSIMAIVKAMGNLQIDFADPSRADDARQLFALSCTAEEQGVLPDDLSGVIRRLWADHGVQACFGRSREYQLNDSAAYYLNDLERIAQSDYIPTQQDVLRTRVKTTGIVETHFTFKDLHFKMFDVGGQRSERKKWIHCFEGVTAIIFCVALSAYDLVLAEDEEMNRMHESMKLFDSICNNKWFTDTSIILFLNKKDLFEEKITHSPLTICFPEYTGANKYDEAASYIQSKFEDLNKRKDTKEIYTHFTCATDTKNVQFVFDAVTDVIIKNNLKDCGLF
T1 sequence (P35408 1-354): as the sequence (P35408 1-354 limits assumed) above
Gαi3 (alpha subunit of Gi protein), sequence (P08754 whole entry): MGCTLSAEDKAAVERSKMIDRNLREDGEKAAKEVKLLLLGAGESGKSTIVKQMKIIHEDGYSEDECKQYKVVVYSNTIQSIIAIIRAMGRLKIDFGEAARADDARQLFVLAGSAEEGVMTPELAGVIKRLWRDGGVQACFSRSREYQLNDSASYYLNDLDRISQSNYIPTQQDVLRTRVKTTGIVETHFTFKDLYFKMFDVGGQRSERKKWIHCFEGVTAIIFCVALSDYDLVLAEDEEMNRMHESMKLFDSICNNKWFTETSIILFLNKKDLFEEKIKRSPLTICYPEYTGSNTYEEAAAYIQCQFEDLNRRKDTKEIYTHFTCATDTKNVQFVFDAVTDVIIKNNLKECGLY
Gαi1 (alpha subunit of Gi protein), sequence (P63096 whole entry): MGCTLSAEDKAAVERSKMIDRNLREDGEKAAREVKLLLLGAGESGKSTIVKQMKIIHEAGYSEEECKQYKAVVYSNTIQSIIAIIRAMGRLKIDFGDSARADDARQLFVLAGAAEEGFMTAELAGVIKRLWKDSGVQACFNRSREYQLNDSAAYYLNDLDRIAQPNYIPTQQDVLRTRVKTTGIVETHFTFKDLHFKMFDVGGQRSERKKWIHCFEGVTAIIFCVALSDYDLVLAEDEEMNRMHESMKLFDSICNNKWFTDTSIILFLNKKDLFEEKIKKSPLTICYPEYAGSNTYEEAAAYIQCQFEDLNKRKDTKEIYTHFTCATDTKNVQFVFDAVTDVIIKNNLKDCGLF

Row | Compound | Kd [1] | Kd [2] | Kd [3] | Kd [4] | Kd [5]
1 | CC(C(=O)Nc1cc(C#N)ccc1CCCC(=O)O)c1ccc(F)c2ccccc12 (centres unmarked) [ONO-AE3-208] | 0.68 ± 0.15 µM | – | – | – | –
2 | P9-EP4 (human prostaglandin E2 receptor 4, amino acids 1-354, fused to the C-terminus of the P9 envelope protein of phage phi6, with a C-terminal His6 tag) (from UniProt P35408 1-354) | – | 0.05 µM | 0.175 µM | 0.214 µM | 0.088 µM
